molecular target: Rho WT (Escherichia coli) (UniProt P0AG30); assay: EMSA; conditions: 25 mM Tris-HCl pH 8.0, 5 mM MgCl2, 50 mM KCl, 1 mM DTT, 0.1 mg/ml BSA; 5 nM RNA, 0-50 nM Rho; 37 °C 5 min; 4% native gel at 4 °C
Sequence (P0AG30 whole entry): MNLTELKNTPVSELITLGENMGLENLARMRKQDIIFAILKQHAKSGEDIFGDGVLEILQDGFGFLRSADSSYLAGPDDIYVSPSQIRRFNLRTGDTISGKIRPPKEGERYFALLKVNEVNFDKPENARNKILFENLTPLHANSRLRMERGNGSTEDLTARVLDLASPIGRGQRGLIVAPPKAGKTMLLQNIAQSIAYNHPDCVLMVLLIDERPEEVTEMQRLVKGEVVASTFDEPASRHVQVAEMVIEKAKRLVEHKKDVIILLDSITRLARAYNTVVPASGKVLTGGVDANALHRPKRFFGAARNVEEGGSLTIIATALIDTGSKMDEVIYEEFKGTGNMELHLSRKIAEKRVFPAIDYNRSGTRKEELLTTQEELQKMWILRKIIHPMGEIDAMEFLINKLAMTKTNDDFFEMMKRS

Question: With “GGGAGAGCUGCUUGUUUAAAGCUGACUGGUUUUAUUGGAAUAGUGAAAUAGUCAACAUCAUACAUUAUAACAUCAGUUACUUUUCCACAAAGAAACUAAUCCAUUUAAGCGAAUAUCUCUGCACCUAAUAGUUAUAAAUGCCAUUUAACAGCCAGUUAUAGUACCACUUGAAACUAUAUUACCAACAAUAAUUAAUAGCUUUCGUAACAAUUUCCUUAUCUUUAAUUUGUAUUUUGCUAAGAUUUAUCUUAUGCUCACAAGUCGUAUUUCCAGAGGGGGAUAG [gfcA terminator RNA]” as the substance, how does the Kd read?
Answer: 19.9 nM

Question: With dmsA terminator RNA as the substance, how does the Kd read?
Answer: 16.1 nM

Question: Which Kd does the source give for gfcA terminator RNA here?
Answer: 19.9 nM

Question: gntX terminator RNA was tested. Which Kd did it give?
Answer: 23.2 nM

Question: For setC terminator RNA, which Kd is on record?
Answer: 11.5 nM

Question: How did the Kd turn out when sodA terminator RNA was run?
Answer: 9.99 nM

Question: With trac (rac) terminator RNA as the substance, how does the Kd read?
Answer: 3.08 nM

Question: Which Kd does the source give for yagM terminator RNA here?
Answer: 11.8 nM

Question: For ycfJ terminator RNA, which Kd is on record?
Answer: 18.5 nM

Question: With ydeT terminator RNA as the substance, how does the Kd read?
Answer: 16.3 nM

Question: Which Kd does the source give for ydhQ terminator RNA here?
Answer: 16.4 nM
